Tested on: human periosteum derived cells (hPDCs)
Test: Gene expression of bone markers in hPDCs in 2D culture (Taqman PCR)
Type: cell-based
Settings: two stage protocol, six factors minus one, 4 days
Description: Same experimental design as in A. C) Identification of factors involved in osteoblast maturation. hPDCs were treated with OM and TGFβ1 for 6 days, followed by stimulation with GM (negative control), GM containing six factors or GM supplement with six minus one factor for 4 days. The factors are ascorbic acid (Asc. Ac., 57 μM), TNFα (50 ng/ml), IL6 (10 ng/ml), EGF (20 ng/ml), Ca (6 mM) and Pi (4 mM). To evaluate osteoblast maturation, gene expression of RUNX2, OSX, DLX5, iBSP, OC and RANKL is measured with Taqman PCR. […] Gene expression is expressed as fold increase as compared to the GM condition. […] Gene expression is expressed as fold increase as compared to hPDCs cultured in OM/TGFβ1 (n=3, error bars: standard deviations, *p≦00.05, Mann-Whitney U test).
Cell culture. […] For in vitro osteogenic differentiation assays, passage 6 to passage 9 hPDCs (pool of four different donors) were seeded at 3000 cells/cm^2 in either 96-well plates to assess proliferation and alkaline phosphatase activity or in the middle eight wells of a 24-well plate for quantifying gene expression. […]
Quantitative PCR. […]

B1: EGF: growth factor ligand, 20 ng/ml (protein, UniProt P01133 23-1207, looked up)
Pro-epidermal growth factor: PQHWSCPEGTLAGNGNSTCVGPAPFLIFSHGNSIFRIDTEGTNYEQLVVDAGVSVIMDFHYNEKRIYWVDLERQLLQRVFLNGSRQERVCNIEKNVSGMAINWINEEVIWSNQQEGIITVTDMKGNNSHILLSALKYPANVAVDPVERFIFWSSEVAGSLYRADLDGVGVKALLETSEKITAVSLDVLDKRLFWIQYNREGSNSLICSCDYDGGSVHISKHPTQHNLFAMSLFGDRIFYSTWKMKTIWIANKHTGKDMVRINLHSSFVPLGELKVVHPLAQPKAEDDTWEPEQKLCKLRKGNCSSTVCGQDLQSHLCMCAEGYALSRDRKYCEDVNECAFWNHGCTLGCKNTPGSYYCTCPVGFVLLPDGKRCHQLVSCPRNVSECSHDCVLTSEGPLCFCPEGSVLERDGKTCSGCSSPDNGGCSQLCVPLSPVSWECDCFPGYDLQLDEKSCAASGPQPFLLFANSQDIRHMHFDGTDYGTLLSQQMGMVYALDHDPVENKIYFAHTALKWIERANMDGSQRERLIEEGVDVPEGLAVDWIGRRFYWTDRGKSLIGRSDLNGKRSKIITKENISQPRGIAVHPMAKRLFWTDTGINPRIESSSLQGLGRLVIASSDLIWPSGITIDFLTDKLYWCDAKQSVIEMANLDGSKRRRLTQNDVGHPFAVAVFEDYVWFSDWAMPSVMRVNKRTGKDRVRLQGSMLKPSSLVVVHPLAKPGADPCLYQNGGCEHICKKRLGTAWCSCREGFMKASDGKTCLALDGHQLLAGGEVDLKNQVTPLDILSKTRVSEDNITESQHMLVAEIMVSDQDDCAPVGCSMYARCISEGEDATCQCLKGFAGDGKLCSDIDECEMGVPVCPPASSKCINTEGGYVCRCSEGYQGDGIHCLDIDECQLGEHSCGENASCTNTEGGYTCMCAGRLSEPGLICPDSTPPPHLREDDHHYSVRNSDSECPLSHDGYCLHDGVCMYIEALDKYACNCVVGYIGERCQYRDLKWWELRHAGHGQQQKVIVVAVCVVVLVMLLLLSLWGAHYYRTQKLLSKNPKNPYEESSRDVRSRRPADTEDGMSSCPQPWFVVIKEHQDLKNGGQPVAGEDGQAADGSMQPTSWRQEPQLCGMGTEQGCWIPVSSDKGSCPQVMERSFHMPSYGTQTLEGGVEKPHSLLSANPLWQQRALDPPHQMELTQ
modifications: Pro-epidermal growth factor
notes: growth factor ligand, 20 ng/ml
- RANKL expression in medium devoid of the factor: lower levels
- role in DLX5 transcription: required

Reference: patent US20150307846A1, “GROWTH FACTOR COCKTAIL TO ENHANCE OSTEOGENIC DIFFERENTIATION OF MESENCHYMAL CELLS” (University of Pennsylvania, priority 2012, published 2015)
